Results taken from publication PMC11293645, “The two-component system TtrRS boosts Vibrio parahaemolyticus colonization by exploiting sulfur compounds in host gut” (PLOS Pathogens, 2024).

Target: T1, TtrR (09830, response regulator) (UniProt Q87N66)
T1 sequence: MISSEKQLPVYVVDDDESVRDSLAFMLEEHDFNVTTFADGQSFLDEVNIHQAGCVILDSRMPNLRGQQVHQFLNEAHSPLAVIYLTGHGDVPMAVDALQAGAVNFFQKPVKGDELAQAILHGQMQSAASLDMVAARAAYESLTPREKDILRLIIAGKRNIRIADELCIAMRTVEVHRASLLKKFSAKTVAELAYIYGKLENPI
Experiment: EMSA
Settings: not given

Molecule | binding
GCTGACTCACTTTAATTGTTATTAATATCTCCAAGTGTCTACTGTGATAGTGACTTGGGTGCTGTATTGTCGGCTTTGTCAATAACTAAAGGTATTGTGGATTTCCACATATTTAGAGGATGTGAAGAGCTGCTAAATGGCAGCTCTTCAGGTTTGGTTGTCTACTAAGCTTTGCGGATTTTGGCTGGTAATGATTGGCGAGCAGCGGCTCCTACCACCCAATCTAACAACACGCCTTTCCCTTCTCGG (double strand) [P09855 (PtsdB, tsdBA promoter)] | binds
CGCCCTGAGCTAAAGATGCAAAGACAACCAAGCACAGAATCCAAAACTGAAGCAACCGTGGCGTTTTGTTCATGATGAGTCGAATCGTTCCTTCGAAAATAATGAAGCAAGAATAACAGCTACCTTCCGTAAACCACATTTGTTTTAGATCAACTTTGATCTGGGTATTATATCGACGTCGCAGCGCATTTCTCACAATGGAATCAGTCAGTTCAAATTCAACTAACAGCAGGTGAGTT (double strand) [PttrB-Δbox] | no binding
GCTGACTCACTTTAATTGTTATTAATATCTCCAAGTGTCTACTGTGATAGTGACTTGGGTGCTGTATTGTCGGCTTTGTCAATAACTAAAGGTATTATATTTAGAGGATGTGAAGAGCTGCTAAATGGCAGCTCTTCAGGTTTGGTTGTCTACTAAGCTTTGCGGATTTTGGCTGGTAATGATTGGCGAGCAGCGGCTCCTACCACCCAATCTAACAACACGCCTTTCCCTTCTCGG (double strand) [PtsdB-Δbox] | no binding
CAATACCTGCAATGGGGACCAACGCGGCACCCGCTGTAATGGCGCTAAGAAAGCGACGTTTGGTGGAATCCATAACTCACCTGCTGTTAGTTGAATTTGAACTGACTGATTCCATTGTGAGAAATGCGCTGCGACGTCGATATAGTGGATTTCCACATACCCAGATCAAAGTTGATCTAAAACAAATGTGGTTTACGGAAGGTAGCTGTTATTCTTGCTTCATTATTTTCGAAGGAACGATTCGACTCATC (double strand) [PttrS (ttrRS promoter)] | binds
CGCCCTGAGCTAAAGATGCAAAGACAACCAAGCACAGAATCCAAAACTGAAGCAACCGTGGCGTTTTGTTCATGATGAGTCGAATCGTTCCTTCGAAAATAATGAAGCAAGAATAACAGCTACCTTCCGTAAACCACATTTGTTTTAGATCAACTTTGATCTGGGTATGTGGAAATCCACTATATCGACGTCGCAGCGCATTTCTCACAATGGAATCAGTCAGTTCAAATTCAACTAACAGCAGGTGAGTT (double strand) [PttrB (ttrBCA promoter)] | binds

Target: T2, TtrBCA (Vibrio parahaemolyticus, UniProt Q87N61)
T2 construct: gene VP2014; native complex in V. parahaemolyticus cells; wild type, ttrA deletion and pBAD24-complemented strains; with Tetrathionate reductase subunit B; Tetrathionate reductase subunit C
Experiment: HPLC of cultures, wild type vs deletion and complemented strains
Format: cell-based
Settings: M9 medium, 10 mM sodium tetrathionate, micro-aerobic, 37 °C; whole-cell cultures; reduction to thiosulfate

T2 sequence (Q87N62 entry or part of it): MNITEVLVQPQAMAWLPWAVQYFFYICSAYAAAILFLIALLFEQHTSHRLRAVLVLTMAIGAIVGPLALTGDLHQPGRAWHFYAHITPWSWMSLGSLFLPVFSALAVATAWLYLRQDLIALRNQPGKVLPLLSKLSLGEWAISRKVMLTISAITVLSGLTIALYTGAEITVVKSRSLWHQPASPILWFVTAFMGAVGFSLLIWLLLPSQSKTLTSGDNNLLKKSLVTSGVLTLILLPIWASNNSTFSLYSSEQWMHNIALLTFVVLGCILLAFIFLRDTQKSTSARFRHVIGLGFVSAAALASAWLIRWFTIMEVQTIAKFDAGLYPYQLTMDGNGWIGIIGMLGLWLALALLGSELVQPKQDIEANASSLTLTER
T2 sequence (Q87N63 entry or part of it, further chain): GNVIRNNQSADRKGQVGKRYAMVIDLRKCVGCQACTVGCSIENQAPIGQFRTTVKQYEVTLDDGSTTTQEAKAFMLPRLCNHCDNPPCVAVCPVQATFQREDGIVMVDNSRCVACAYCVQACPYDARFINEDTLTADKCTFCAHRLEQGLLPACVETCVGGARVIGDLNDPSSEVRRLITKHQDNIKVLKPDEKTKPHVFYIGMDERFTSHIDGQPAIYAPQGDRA
T2 sequence (Q87N61 entry or part of it): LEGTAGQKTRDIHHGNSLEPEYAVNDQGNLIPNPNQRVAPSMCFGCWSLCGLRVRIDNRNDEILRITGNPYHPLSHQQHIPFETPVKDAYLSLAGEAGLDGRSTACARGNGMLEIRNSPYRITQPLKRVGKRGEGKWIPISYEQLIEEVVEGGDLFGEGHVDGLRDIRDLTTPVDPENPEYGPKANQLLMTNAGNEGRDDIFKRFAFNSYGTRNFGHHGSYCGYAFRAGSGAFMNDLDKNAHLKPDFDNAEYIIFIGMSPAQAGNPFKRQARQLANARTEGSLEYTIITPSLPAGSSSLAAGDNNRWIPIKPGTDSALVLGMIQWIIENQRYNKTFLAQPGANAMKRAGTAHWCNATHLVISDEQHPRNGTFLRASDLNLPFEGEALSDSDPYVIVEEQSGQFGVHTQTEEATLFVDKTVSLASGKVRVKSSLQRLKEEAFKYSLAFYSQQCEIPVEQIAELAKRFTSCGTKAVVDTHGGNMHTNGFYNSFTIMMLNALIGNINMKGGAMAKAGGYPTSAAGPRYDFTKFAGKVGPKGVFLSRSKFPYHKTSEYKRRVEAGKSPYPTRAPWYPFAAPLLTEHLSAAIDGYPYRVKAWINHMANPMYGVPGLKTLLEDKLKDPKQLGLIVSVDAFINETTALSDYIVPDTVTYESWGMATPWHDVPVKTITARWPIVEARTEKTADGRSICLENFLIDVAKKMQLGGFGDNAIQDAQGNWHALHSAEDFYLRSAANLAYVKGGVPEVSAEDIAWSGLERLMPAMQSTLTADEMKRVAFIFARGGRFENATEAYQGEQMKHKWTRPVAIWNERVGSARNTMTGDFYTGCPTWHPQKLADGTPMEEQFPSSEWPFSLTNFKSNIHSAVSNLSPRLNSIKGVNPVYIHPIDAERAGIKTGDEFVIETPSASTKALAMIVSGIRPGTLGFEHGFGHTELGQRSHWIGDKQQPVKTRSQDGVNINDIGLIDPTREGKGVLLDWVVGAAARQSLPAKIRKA

Molecule | HPLC of cultures, wild type vs deletion and complemented strains
O=S(=O)(O)SSS(=O)(=O)O [tetrathionate] | confirming that ttrBCA is essential for tetrathionate reduction
